According to paper PMC3416812:

Key:
[1] = biological target: tubulin polymers from porcine brain tubulin fixed with glutaraldehyde (MTs (GA) or zinc-sheets (GA)) (porcine (purified from porcine brain)) (UniProt P02550)
[2] = biological target: tubulin polymers from porcine brain tubulin fixed with glutaraldehyde (MTs (GA) or zinc-sheets (GA)) (porcine (purified from porcine brain)) (UniProt P02550); remark: listed apart in the source
[3] = biological target: tubulin purified from porcine brain, polymerised without fixation (MTs, zinc-sheets or zinc-macrotubes) (porcine (purified from porcine brain)) (UniProt P02550)

Row | Substance | observed walking length on zinc-sheets (GA) (TIRF) [1] | velocity of single-molecule movement on MTs (GA) (TIRF, from MSD plots; pH 6.8, 25 mM potassium acetate, 1 mM ATP) [2] | velocity of single-molecule movement on zinc-sheets (GA) (TIRF, from MSD plots; pH 6.8, 25 mM potassium acetate, 1 mM ATP) [2] | velocity of single-molecule movement on MTs (TIRF, from MSD plots; pH 6.8, 25 mM potassium acetate, 1 mM ATP) [3]
1 | rat kinesin dimer (RK430) fused with GFP (domain or fragment) | 500 nm | – | – | –
2 | recombinant yeast dynein dimer GFP-GST-Dyn1_(331kDa) (domain or fragment) | 500 nm | 35 nm/s | 35 nm/s | 36 nm/s
